Measurements taken from publication PMC9232890.

Biological target: NIST mAb
Assay: AUC

NIST mAb (antibody)
3%: amount of dimer (%), fit of 20 scans | amount of dimer (%), fit of 50 scans | amount of dimer (%), fit of 100 scans | amount of dimer (%), fit of 250 scans
